Experimental data taken from patent publication US11820970B2, “High throughput protein-protein interaction screening in yeast liquid culture” (University of Washington, priority 2016, dated 2023).

Legend:
Experiment in all cases: Batched (one-pot) yeast mating assay, barcode sequencing
Format in all cases: cell-based
[1] = molecular target: Bcl2 (Homo sapiens, UniProt P10415); conditions: vs Bcl2
Protocol: (§1) For a many-to-many (also see Example 6) batched mating assay, multiple haploid yeast strains of each mating type are combined in a fresh 3 mL YPD culture. The recombinant MATa yeast strains are added in equal concentrations for a total density of 100 cells/μL and the recombinant MATalpha yeast strains are added in equal concentrations for a total density of 600 cells/μL. After 6 hours of growth, hygromycin is added at 100 ng/μL and β-estradiol (PE) is added at 200 ng/μL. 20 hours after the initial culture inoculation, 1 mL of cells are pelleted. 2 μL of cells are removed from the pellet, lysed with 0.2% SDS, spun down to remove all cellular debris, and diluted in water. The lysate is then used as a template for a PCR with standard primers containing overhangs for next generation sequencing and the PCR product, expected to be 650 bases, is purified from a gel slice. Paired-end next generation sequencing is then performed. The frequency that a particular pair of barcodes is observed relative to the total number of reads provides a relative measure for the number of matings that were caused by the SAP pair associated with those two particular barcodes.
(§2) LIBRARY MATING ASSAYS: For library mating assays in which each isogenic strain was constructed individually and the barcode associated with each synthetic adhesion protein was determined with Sanger sequencing, one or both of the isogenic haploid strains from a one-to-one mating were replaced with a library of strains, all of the same mating type, displaying unique barcoded synthetic adhesion proteins. Each haploid strain in the library is individually grown to saturation, evaluated for surface expression strength as described previously, and mixed in equal volumes. 2.5 μL, if a MATa library, or 5 μL, if a MATalpha library, were then added to a mating as before. Following a 17 hour incubation, 100 μL were added to 50 mL of YPD with […] hygromycin and 100 nM β-estradiol (many-to-many matings only). After growing to saturation, cells were harvested by centrifugation, and lysed by heating to 70° C. for 5 min in 200 mM LiOAc and 1% SDS. Cellular debris was removed and incubated at 37° C. for 4 hours with 0.05 mg/mL RNase A. An ethanol precipitation was then performed to purify and concentrate the genomic DNA. A primary qPCR is performed to amplify the barcode region with standard adaptors and the PCR product is used as a template for a secondary qPCR to attach an index barcode and standard Illumina adaptors. This fragment is gel extracted, quantified with a Qubit and analyzed on a MiSeq next generation sequencer.
(§3) One-pot protein library characterization. A barcoding and recombination scheme was developed for the analysis of whole protein interaction networks in a single pot. Single MATa and MATα parent strain, yNGYSDa and yNGYSDα, were constructed and barcoded SAP cassettes were transformed into the strains. In addition to the knockout of Sag1 in both parent strains and complementary lysine and leucine markers, yNGYSDa contains a CRE recombinase expression cassette with an inducible promoter, pZ4. yNGYSDα constitutively expresses ZEV4, an activator of the pZ4 promoter with an estradiol binding domain for nuclear localization. SAP cassettes were assembled in one of two standardized vectors, pNGYSDa or pNGYSDα, for integration into the corresponding yeast parent strain. In addition to the surface expression cassette, each vector backbone contains a mating type specific florescent reporter cassette, a randomized ten-nucleotide barcode, a mating type specific primer binding site, and a lox recombination site. Upon mating, the addition of β-Estradiol (βE) induces CRE recombinase expression in diploid cells, consolidating the barcodes from each haploid chromosome so that next-generation sequencing can be used to count the frequency of interacting SAP pairs (FIG. 16A). […]

[2] = molecular target: T1, Bfl1 (Homo sapiens, UniProt Q16548); conditions: vs Bfl1
T1 sequence (Q16548 1-175): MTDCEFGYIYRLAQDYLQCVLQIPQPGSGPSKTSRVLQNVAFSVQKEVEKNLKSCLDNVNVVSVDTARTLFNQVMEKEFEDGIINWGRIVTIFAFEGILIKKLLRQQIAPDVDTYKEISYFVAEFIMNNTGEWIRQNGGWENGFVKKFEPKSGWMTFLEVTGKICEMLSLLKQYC
Protocol: as §1, §2, §3

[3] = molecular target: T2, BclW (Homo sapiens, UniProt Q92843); conditions: vs BclW
T2 sequence (Q92843 1-193): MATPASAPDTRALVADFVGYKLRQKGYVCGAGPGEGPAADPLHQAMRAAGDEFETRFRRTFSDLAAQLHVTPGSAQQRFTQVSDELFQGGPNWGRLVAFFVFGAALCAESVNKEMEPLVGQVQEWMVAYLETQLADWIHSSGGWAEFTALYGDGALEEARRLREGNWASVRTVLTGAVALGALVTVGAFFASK
Protocol: as §1, §2, §3

Bcl2, sequence (P10415 whole entry, species assumed): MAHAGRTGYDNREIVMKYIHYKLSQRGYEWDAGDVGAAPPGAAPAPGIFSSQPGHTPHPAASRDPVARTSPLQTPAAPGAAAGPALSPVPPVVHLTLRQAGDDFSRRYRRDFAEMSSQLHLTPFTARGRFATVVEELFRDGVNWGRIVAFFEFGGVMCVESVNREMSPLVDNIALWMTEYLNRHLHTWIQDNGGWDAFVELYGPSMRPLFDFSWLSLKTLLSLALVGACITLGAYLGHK

binding in batched mating (interaction profile, in words) [1] | binding in batched mating (interaction profile, in words) [2] | binding in batched mating (interaction profile, in words) [3] | Substance
nonspecifically | nonspecifically | nonspecifically | Bim: natural BH3 domain peptide binder of Bcl2 family proteins
– | high specificity | – | Noxa: natural BH3 domain peptide binder of Bcl2 family proteins (PAELEVECATQLRRFGDKLNFRQKLL)
nonspecifically | nonspecifically | nonspecifically | Puma: natural BH3 domain peptide binder of Bcl2 family proteins (EEQWAREIGAQLRRMADDLNAQYERR)
